Laboratory results reported in article PMC9407945 (Science immunology, 2022).
Changes are numbered by the printed parent chain.

B1: SW186 Fab (fragment antigen-binding region of SW186) (Fab, V domains shown)
VH: QVQLQQSGAELVKPGASVKISCKASGVAFSSYWMNWVKQRPGKGLEWIGQIYPGDGDTNYNGKFKGKATLTADKSSSTAYMQLSSLSSEDSAVYFCARGFIATVEETMDYWGQGTSVTVSS
VL: DIQMTQTTSSLSASLGDRVTISCRASQDISNYLNWYQQKPDGTVKLLIYYTSRLHSGVPSRFSGSGSGTDYSLTISNLEQEDIATYFCQQSHTLPWTFGGGTKLEIK
B2: SW186 Fab (Fab, V domains shown)
VH: B1 VH
VL: B1 VL
B3: humanized SW186 H4L1 (antibody, V domains shown)
VH: QVQLVQSGAEVKKPGSSVKVSCKASGVAFSSYWMNWVKQAPGQGLEWIGQIYPGDGDTNYNGKFKGKATITADKSTSTAYMELSSLRSEDTAVYFCARGFIATVEETMDYWGQGTLVTVSS
VL: DIQMTQSPSSLSASVGDRVTITCRASQDISNYLNWYQQKPGKAPKLLIYYTSRLHSGVPSRFSGSGSGTDFTLTISSLQPEDFATYYCQQSHTLPWTFGGGTKLEIK
B4: humanized SW186 H4L3 (antibody, V domains shown)
VH: B3 VH
VL: B3 VL with F71Y, Y87F
B5: humanized SW186 H2L1 (antibody, V domains shown)
VH: B3 VH with K38R, K67R, A68V
VL: B3 VL
B6: humanized SW186 H3L1 (antibody, V domains shown)
VH: B3 VH with K38R, K67R
VL: B3 VL
B7: humanized SW186 H2L4 (antibody, V domains shown)
VH: B3 VH with K38R, K67R, A68V
VL: B3 VL with A43T, P44V, F71Y, Y87F
B8: humanized SW186 H2L2 (antibody, V domains shown)
VH: B3 VH with K38R, K67R, A68V
VL: B3 VL with Y87F
B9: humanized SW186 H2L3 (antibody, V domains shown)
VH: B3 VH with K38R, K67R, A68V
VL: B3 VL with F71Y, Y87F
B10: humanized SW186 H4L2 (antibody, V domains shown)
VH: B3 VH
VL: B3 VL with Y87F
B11: humanized SW186 H1L2 (antibody, V domains shown)
VH: B3 VH with K38R, I48M, K67R, A68V, F95Y
VL: B3 VL with Y87F
B12: humanized SW186 H4L4 (antibody, V domains shown)
VH: B3 VH
VL: B3 VL with A43T, P44V, F71Y, Y87F
B13: humanized SW186 H1L4 (antibody, V domains shown)
VH: B3 VH with K38R, I48M, K67R, A68V, F95Y
VL: B3 VL with A43T, P44V, F71Y, Y87F
B14: humanized SW186 H1L3 (antibody, V domains shown)
VH: B3 VH with K38R, I48M, K67R, A68V, F95Y
VL: B3 VL with F71Y, Y87F
B15: SW186 monoclonal antibody (murine-human chimeric, human IgG1 backbone) (antibody, V domains shown)
VH: B1 VH
VL: B1 VL

Molecular target: T1, SARS-CoV-2 spike ectodomain (S-ecto), Wuhan-hu-1 strain, residues 1-1208 with 2P mutation (SARS-CoV-2, Wuhan-hu-1, UniProt P0DTC2, 2P mutation at residues 986 and 987)
Test: BLI
Settings: both partners purified

| Binder | Kd [nM] |
| --- | --- |
| B1 | ~1 |

Molecular target: SARS-CoV-2 spike ectodomain (S-ecto), Wuhan-hu-1, 2P (SARS-CoV-2, Wuhan-hu-1, UniProt P0DTC2, 2P mutation at residues 986 and 987, biotinylated (EZ-link NHS-sulfo-LC-Biotin) for the BLI assay)
Test: BLI
Settings: both partners purified

| Binder | Kd [nM] |
| --- | --- |
| B2 | 1.09 |
| B3 | 4.14 |
| B4 | 2.4 |
| B5 | 18.1 |
| B6 | 6.69 |
| B7 | 3.14 |
| B8 | 12.6 |
| B9 | 3.72 |
| B10 | 5.86 |
| B11 | 26.2 |
| B12 | 1.57 |
| B13 | 5.03 |
| B14 | 4.37 |

Molecular target: T1, SARS-CoV-2 spike ectodomain (S-ecto), …
Test: cell-based or functional assay
Settings: not given

| Binder | neutralisation of infectious mNeonGreen SARS-CoV-2, WA1 strain, IC50 [µg/mL] |
| --- | --- |
| B15 | ~0.04 |
